Measurements taken from patent US10383919B1, “Fragments of growth hormone binding protein” (The University of the Sciences, priority 2013, dated 2019).
Where no end group is shown, it is not given here.

How the values were obtained:
rhGH = biological target: T1, rhGH (Homo sapiens, UniProt P01241); assay: Equilibrium dialysis of GHBP peptides against rhGH (12-14 kDa MWCO membrane, MICRO-BCA read-out of lower chamber); type: binding; conditions: 1:1 ratio of rhGH:peptide; 0.25 mg/ml hGH stock; starting peptide 11.36 uM; 37° C., 24 hours
T1 construct: purchased Bresagen, Adelaide, Australia
Procedure: Equilibrium Dialysis: High Throughput Equilibrium Dialysis was performed using the 96-well Micro-Equilibrium Dialysis Device HTD (HTDialysis, LLC, CT, USA) according to the supplier's directions. The dialysis membrane was a SPECTRA/POR cellulose ester membrane. We tested a 3.5-5 kDa Molecular Weight Cut-off (MWCO) SPECTRA/POR membrane and a 12-14 kDa Molecular Weight Cut-off (MWCO) SPECTRA/POR membrane for their ability to allow peptide equilibration. Peptides were added to the upper chamber of each well of both a 3.5-5 kDa MWCO and a 12-14 kDa MWCO membrane and incubated at 37° C. with shaking at 200 rpm for 24 hours. Concentration of the peptide in the upper and lower chamber was assayed using MICRO-BCA Assay (Pierce) according to the supplier's directions.
We then confirmed the ability of the 12-14 kDa MWCO membrane to retain the hGH. Lyophilized recombinant hGH (Bresagen, Adelaide, Australia) was dissolved in phosphate-buffered saline (PBS) plus 0.05% sodium azide. One-hundred uL of a 25 mg/mL solution plus 100 uL of PBS were added to the upper chamber of the micro-dialysis device fitted with a 12-14 kDa MWCO membrane and incubated at 37° C. with shaking at 200 rpm for 24 hours. Concentration of hGH in the upper and lower chamber was assayed using MICRO-BCA Assay (Pierce) according to the supplier's directions. […] We used the 12-14 kDa MWCO membrane for our binding assays.
The upper chamber of each well received 100 uL of 0.25 mg/ml hGH and 100 uL of a 22.72 uM peptide solution. The lower chamber of each well received 100 uL of buffer and 100 uL of a 22.72 uM peptide solution. Thus, the starting concentration of peptide in both the upper and lower portion of each well was 11.36 uM. Plates were incubated at 37° C., with shaking at 200 rpm for 24 hours. […] The assay was configured with a 1:2 sample: working reagent ratio and incubated 45° C. for 4 hours and read in a spectrophotometer at 562 nm. Concentrations of peptide in the lower chamber were determined based on the equations generated by the standard curves for each peptide. […]

[1] = cited from earlier work

T1 sequence (P01241 27-217): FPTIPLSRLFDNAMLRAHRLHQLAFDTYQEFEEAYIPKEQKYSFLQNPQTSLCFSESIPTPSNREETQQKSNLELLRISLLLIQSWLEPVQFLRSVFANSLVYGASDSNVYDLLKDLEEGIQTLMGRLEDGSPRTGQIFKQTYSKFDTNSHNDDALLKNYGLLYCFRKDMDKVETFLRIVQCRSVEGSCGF

Substance: S-P-E-R-E-T-F-S (SPERETFS; listed as Homo sapiens) [Peptide 1, hGHBP fragment Serine-40 to Serine-47]
- concentration of peptide in the lower chamber in the presence of rhGH (binding to rhGH) (rhGH): substantially reduced

Substance: hGH: Human growth hormone (somatotropin or somatropin), a peptide hormone; recombinant hGH (Bresagen) was used in the binding assays
- half-life in the bloodstream [1]: about fifteen

Substance: TSIWIPYCIGKCFSVDEIVQPD (TSIWIPYCIGKCFSVDEIVQPD; not fully specified; printed as Thr-Ser-Ile-Trp-Ile-Pro-Tyr-Cys-Ile-Gly-Lys-Cys-Phe-Ser-Val-Asp-Glu-Ile-Val-Gln-Pro-Asp; cysteine pairing not given here; listed as Homo sapiens) [Peptide 7, Peptide 5 & Peptide 6 bridged]
- concentration of peptide in the lower chamber in the presence of rhGH (binding to rhGH) (rhGH): substantially reduced

Substance: R-R-N-T-Q-E (RRNTQE; listed as Homo sapiens) [Peptide 3, hGHBP fragment Arginine-70 to Glutamate-76]
- concentration of peptide in the lower chamber in the presence of rhGH (binding to rhGH) (rhGH): substantially reduced
